For experiment [1], the target named is T1, rat calcitonin receptor (rat, UniProt P32214 25-516).
T1 construct: whole, on cells; Used as membranes prepared from the transfected cells; also called rCTR; rCT
T1 sequence (looked up): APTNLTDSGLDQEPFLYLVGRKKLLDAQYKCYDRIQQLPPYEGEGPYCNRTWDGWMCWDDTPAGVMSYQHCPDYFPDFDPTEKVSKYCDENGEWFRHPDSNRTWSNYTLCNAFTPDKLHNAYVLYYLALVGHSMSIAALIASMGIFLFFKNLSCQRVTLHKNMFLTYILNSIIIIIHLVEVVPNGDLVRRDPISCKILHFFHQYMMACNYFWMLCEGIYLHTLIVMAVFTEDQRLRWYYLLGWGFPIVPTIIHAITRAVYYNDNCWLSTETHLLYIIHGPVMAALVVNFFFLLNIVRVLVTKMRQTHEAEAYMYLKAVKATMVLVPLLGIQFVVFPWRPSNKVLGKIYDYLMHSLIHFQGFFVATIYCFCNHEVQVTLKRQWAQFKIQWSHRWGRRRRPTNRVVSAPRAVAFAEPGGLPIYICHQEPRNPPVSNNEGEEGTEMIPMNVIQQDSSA
As to the kind of experiment: SPA competition with 125I-calcitonin, membranes with rat calcitonin receptor (Assay VIII).

The target of experiment [2] is T2, human calcitonin receptor (human, UniProt P30988 25-474).
T2 construct: whole, on cells; Used as membranes prepared from the transfected cells; also called hCTR; hCT
T2 sequence (looked up): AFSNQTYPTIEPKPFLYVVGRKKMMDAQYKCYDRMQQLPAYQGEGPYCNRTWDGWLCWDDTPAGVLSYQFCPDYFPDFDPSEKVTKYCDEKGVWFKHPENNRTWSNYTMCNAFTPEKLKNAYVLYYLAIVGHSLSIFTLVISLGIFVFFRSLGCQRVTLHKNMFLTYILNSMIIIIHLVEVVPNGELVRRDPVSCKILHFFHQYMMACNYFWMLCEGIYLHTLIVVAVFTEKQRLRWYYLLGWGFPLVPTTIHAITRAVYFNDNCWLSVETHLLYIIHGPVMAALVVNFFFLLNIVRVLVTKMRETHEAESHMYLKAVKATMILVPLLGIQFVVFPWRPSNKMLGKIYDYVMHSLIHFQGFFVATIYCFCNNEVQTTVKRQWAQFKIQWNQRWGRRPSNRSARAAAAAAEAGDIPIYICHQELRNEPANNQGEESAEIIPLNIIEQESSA
Put plainly: ratio of binding IC50 at human calcitonin receptor to IC50 at human amylin receptor (reference). Summed up:
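Competition binding by SPA uses membrane preparations (35 ng/μL final) in pH 7.4 Hepes buffer with 1 mM CaCl2 and 5 mM MgCl₂. Incubation lasts 120 min at 25° C, and IC₅₀ comes from one-site fitting.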

Experiment [3] concerns the target T1, rat calcitonin receptor. Put plainly: ratio of binding IC50 at rat calcitonin receptor to IC50 at rat amylin receptor (reference).

Numbered stars: 1 amine (or outer) side, 2 acyl side, 3 side chain; on linkers, the order of the positions; unused ones are H or OH. Bridge positions count the residues as written; N and C are the ends. Side chains are listed from the residue outwards. Ends that are not written are not given here. * marks the point of attachment. C20 diacid = O=C(O)CCCCCCCCCCCCCCCCCCC(=O)*; γGlu = O=C(O)[C@H](CCC(=O)[*:2])N[*:1]

For orientation: IC50 means the concentration that gives 50% inhibition.

B1: N^ε1-[(4S)-4-carboxy-4-(19-carboxynonadecanoylamino)butanoyl]-[His14,Arg17,Pro21,Pro27,His34]-h-amylin (peptide)
peptide: K([γGlu-C20 diacid])CNTATCATQRLAHFLRHSSPNFGAIPSSTNVGHNTY-NH2
modifications: disulfide 2-7; N-terminus assumed
SMILES: CC[C@H](C)[C@H](NC(=O)[C@H](C)NC(=O)CNC(=O)[C@H](Cc1ccccc1)NC(=O)[C@H](CC(N)=O)NC(=O)[C@@H]1CCCN1C(=O)[C@H](CO)NC(=O)[C@H](CO)NC(=O)[C@H](Cc1c[nH]cn1)NC(=O)[C@H](CCCNC(=N)N)NC(=O)[C@H](CC(C)C)NC(=O)[C@H](Cc1ccccc1)NC(=O)[C@H](Cc1c[nH]cn1)NC(=O)[C@H](C)NC(=O)[C@H](CC(C)C)NC(=O)[C@H](CCCNC(=N)N)NC(=O)[C@H](CCC(N)=O)NC(=O)[C@@H](NC(=O)[C@H](C)NC(=O)[C@@H]1CSSC[C@H](NC(=O)[C@@H](N)CCCCNC(=O)CC[C@H](NC(=O)CCCCCCCCCCCCCCCCCCC(=O)O)C(=O)O)C(=O)N[C@@H](CC(N)=O)C(=O)N[C@@H]([C@@H](C)O)C(=O)N[C@@H](C)C(=O)N[C@@H]([C@@H](C)O)C(=O)N1)[C@@H](C)O)C(=O)N1CCC[C@H]1C(=O)N[C@@H](CO)C(=O)N[C@@H](CO)C(=O)N[C@H](C(=O)N[C@@H](CC(N)=O)C(=O)N[C@H](C(=O)NCC(=O)N[C@@H](Cc1c[nH]cn1)C(=O)N[C@@H](CC(N)=O)C(=O)N[C@H](C(=O)N[C@@H](Cc1ccc(O)cc1)C(N)=O)[C@@H](C)O)C(C)C)[C@@H](C)O
notes: Analogue of human amylin; disulfide and C-terminal amide as told for h-amylin; also called compound 81
With B1, the 50% inhibitory concentration (IC50) in experiment [1] was determined as 61.1 nM. Besides, the “Ratio hCT/hAmylin binding” value in experiment [2] is 87.2. In addition, the “Ratio rCT/rAmylin binding” value in experiment [3] is 42.9.

B2: N^ε1-[(4S)-4-carboxy-4-[[(4S)-4-carboxy-4-(19-carboxynonadecanoylamino)butanoyl]amino]butanoyl]-[Glu14,Arg17,Pro21,Pro27,Arg35]-h-amylin (peptide)
peptide: K([γGlu-γGlu-C20 diacid])CNTATCATQRLAEFLRHSSPNFGAIPSSTNVGSRTY-NH2
modifications: disulfide 2-7; N-terminus assumed
SMILES: CC[C@H](C)[C@H](NC(=O)[C@H](C)NC(=O)CNC(=O)[C@H](Cc1ccccc1)NC(=O)[C@H](CC(N)=O)NC(=O)[C@@H]1CCCN1C(=O)[C@H](CO)NC(=O)[C@H](CO)NC(=O)[C@H](Cc1c[nH]cn1)NC(=O)[C@H](CCCNC(=N)N)NC(=O)[C@H](CC(C)C)NC(=O)[C@H](Cc1ccccc1)NC(=O)[C@H](CCC(=O)O)NC(=O)[C@H](C)NC(=O)[C@H](CC(C)C)NC(=O)[C@H](CCCNC(=N)N)NC(=O)[C@H](CCC(N)=O)NC(=O)[C@@H](NC(=O)[C@H](C)NC(=O)[C@@H]1CSSC[C@H](NC(=O)[C@@H](N)CCCCNC(=O)CC[C@H](NC(=O)CC[C@H](NC(=O)CCCCCCCCCCCCCCCCCCC(=O)O)C(=O)O)C(=O)O)C(=O)N[C@@H](CC(N)=O)C(=O)N[C@@H]([C@@H](C)O)C(=O)N[C@@H](C)C(=O)N[C@@H]([C@@H](C)O)C(=O)N1)[C@@H](C)O)C(=O)N1CCC[C@H]1C(=O)N[C@@H](CO)C(=O)N[C@@H](CO)C(=O)N[C@H](C(=O)N[C@@H](CC(N)=O)C(=O)N[C@H](C(=O)NCC(=O)N[C@@H](CO)C(=O)N[C@@H](CCCNC(=N)N)C(=O)N[C@H](C(=O)N[C@@H](Cc1ccc(O)cc1)C(N)=O)[C@@H](C)O)C(C)C)[C@@H](C)O
notes: Analogue of human amylin; disulfide and C-terminal amide as told for h-amylin; also called compound 89
As to B2, the IC50 in experiment [1] is 115 nM. In addition, the “Ratio hCT/hAmylin binding” value in experiment [2] was 28. Also, the “Ratio rCT/rAmylin binding” value in experiment [3] turned out to be 48.8.

B3: N^ε1-[(4S)-4-carboxy-4-[[(4S)-4-carboxy-4-(19-carboxynonadecanoylamino)butanoyl]amino]butanoyl]-[Arg17,Pro21,Pro27,His34]-h-amylin (peptide)
peptide: K([γGlu-γGlu-C20 diacid])CNTATCATQRLANFLRHSSPNFGAIPSSTNVGHNTY-NH2
modifications: disulfide 2-7; N-terminus assumed
SMILES: CC[C@H](C)[C@H](NC(=O)[C@H](C)NC(=O)CNC(=O)[C@H](Cc1ccccc1)NC(=O)[C@H](CC(N)=O)NC(=O)[C@@H]1CCCN1C(=O)[C@H](CO)NC(=O)[C@H](CO)NC(=O)[C@H](Cc1c[nH]cn1)NC(=O)[C@H](CCCNC(=N)N)NC(=O)[C@H](CC(C)C)NC(=O)[C@H](Cc1ccccc1)NC(=O)[C@H](CC(N)=O)NC(=O)[C@H](C)NC(=O)[C@H](CC(C)C)NC(=O)[C@H](CCCNC(=N)N)NC(=O)[C@H](CCC(N)=O)NC(=O)[C@@H](NC(=O)[C@H](C)NC(=O)[C@@H]1CSSC[C@H](NC(=O)[C@@H](N)CCCCNC(=O)CC[C@H](NC(=O)CC[C@H](NC(=O)CCCCCCCCCCCCCCCCCCC(=O)O)C(=O)O)C(=O)O)C(=O)N[C@@H](CC(N)=O)C(=O)N[C@@H]([C@@H](C)O)C(=O)N[C@@H](C)C(=O)N[C@@H]([C@@H](C)O)C(=O)N1)[C@@H](C)O)C(=O)N1CCC[C@H]1C(=O)N[C@@H](CO)C(=O)N[C@@H](CO)C(=O)N[C@H](C(=O)N[C@@H](CC(N)=O)C(=O)N[C@H](C(=O)NCC(=O)N[C@@H](Cc1c[nH]cn1)C(=O)N[C@@H](CC(N)=O)C(=O)N[C@H](C(=O)N[C@@H](Cc1ccc(O)cc1)C(N)=O)[C@@H](C)O)C(C)C)[C@@H](C)O
notes: Analogue of human amylin; disulfide and C-terminal amide as told for h-amylin; also called compound 86
Take B3: in experiment [1], the half-maximal inhibitory concentration (IC50) is 352 nM. Also, the “Ratio hCT/hAmylin binding” value in experiment [2] was found to be 159. In addition, the “Ratio rCT/rAmylin binding” value in experiment [3] was found to be 126.

B4: N^ε1-[(4S)-4-carboxy-4-[[(4S)-4-carboxy-4-(19-carboxynonadecanoylamino)butanoyl]amino]butanoyl]-[Glu14,Arg17,Pro21,Pro27,Arg34]-h-amylin (peptide)
peptide: K([γGlu-γGlu-C20 diacid])CNTATCATQRLAEFLRHSSPNFGAIPSSTNVGRNTY-NH2
modifications: disulfide 2-7; N-terminus assumed
SMILES: CC[C@H](C)[C@H](NC(=O)[C@H](C)NC(=O)CNC(=O)[C@H](Cc1ccccc1)NC(=O)[C@H](CC(N)=O)NC(=O)[C@@H]1CCCN1C(=O)[C@H](CO)NC(=O)[C@H](CO)NC(=O)[C@H](Cc1c[nH]cn1)NC(=O)[C@H](CCCNC(=N)N)NC(=O)[C@H](CC(C)C)NC(=O)[C@H](Cc1ccccc1)NC(=O)[C@H](CCC(=O)O)NC(=O)[C@H](C)NC(=O)[C@H](CC(C)C)NC(=O)[C@H](CCCNC(=N)N)NC(=O)[C@H](CCC(N)=O)NC(=O)[C@@H](NC(=O)[C@H](C)NC(=O)[C@@H]1CSSC[C@H](NC(=O)[C@@H](N)CCCCNC(=O)CC[C@H](NC(=O)CC[C@H](NC(=O)CCCCCCCCCCCCCCCCCCC(=O)O)C(=O)O)C(=O)O)C(=O)N[C@@H](CC(N)=O)C(=O)N[C@@H]([C@@H](C)O)C(=O)N[C@@H](C)C(=O)N[C@@H]([C@@H](C)O)C(=O)N1)[C@@H](C)O)C(=O)N1CCC[C@H]1C(=O)N[C@@H](CO)C(=O)N[C@@H](CO)C(=O)N[C@H](C(=O)N[C@@H](CC(N)=O)C(=O)N[C@H](C(=O)NCC(=O)N[C@@H](CCCNC(=N)N)C(=O)N[C@@H](CC(N)=O)C(=O)N[C@H](C(=O)N[C@@H](Cc1ccc(O)cc1)C(N)=O)[C@@H](C)O)C(C)C)[C@@H](C)O
notes: Analogue of human amylin; disulfide and C-terminal amide as told for h-amylin; also called compound 88
B4: the IC50 in experiment [1] amounted to 196 nM. The “Ratio hCT/hAmylin binding” value in experiment [2] was 46.5. Besides, the “Ratio rCT/rAmylin binding” value in experiment [3] worked out at 84.9.

B5: N^ε1-[(4S)-4-carboxy-4-(19-carboxynonadecanoylamino)butanoyl]-[His14,Arg17,Pro21,Pro27,His35]-h-amylin (peptide)
peptide: K([γGlu-C20 diacid])CNTATCATQRLAHFLRHSSPNFGAIPSSTNVGSHTY-NH2
modifications: disulfide 2-7; N-terminus assumed
SMILES: CC[C@H](C)[C@H](NC(=O)[C@H](C)NC(=O)CNC(=O)[C@H](Cc1ccccc1)NC(=O)[C@H](CC(N)=O)NC(=O)[C@@H]1CCCN1C(=O)[C@H](CO)NC(=O)[C@H](CO)NC(=O)[C@H](Cc1c[nH]cn1)NC(=O)[C@H](CCCNC(=N)N)NC(=O)[C@H](CC(C)C)NC(=O)[C@H](Cc1ccccc1)NC(=O)[C@H](Cc1c[nH]cn1)NC(=O)[C@H](C)NC(=O)[C@H](CC(C)C)NC(=O)[C@H](CCCNC(=N)N)NC(=O)[C@H](CCC(N)=O)NC(=O)[C@@H](NC(=O)[C@H](C)NC(=O)[C@@H]1CSSC[C@H](NC(=O)[C@@H](N)CCCCNC(=O)CC[C@H](NC(=O)CCCCCCCCCCCCCCCCCCC(=O)O)C(=O)O)C(=O)N[C@@H](CC(N)=O)C(=O)N[C@@H]([C@@H](C)O)C(=O)N[C@@H](C)C(=O)N[C@@H]([C@@H](C)O)C(=O)N1)[C@@H](C)O)C(=O)N1CCC[C@H]1C(=O)N[C@@H](CO)C(=O)N[C@@H](CO)C(=O)N[C@H](C(=O)N[C@@H](CC(N)=O)C(=O)N[C@H](C(=O)NCC(=O)N[C@@H](CO)C(=O)N[C@@H](Cc1c[nH]cn1)C(=O)N[C@H](C(=O)N[C@@H](Cc1ccc(O)cc1)C(N)=O)[C@@H](C)O)C(C)C)[C@@H](C)O
notes: Analogue of human amylin; disulfide and C-terminal amide as told for h-amylin; also called compound 66
In the case of B5, in experiment [1], the half-inhibitory concentration (IC50) is 20.8 nM. Besides, the “Ratio hCT/hAmylin binding” value in experiment [2] is 45.5. For the same molecule, the “Ratio rCT/rAmylin binding” value in experiment [3] is 35.8.

The record behind these values is US20140087995A1 (published 2014).
